Reference: US20140044713A1 (KONINKLIJKE NEDERLANDSE AKADEMIE VAN WETENSCHAPPEN, published 2014)

What was measured:
Experiment in all cases: TAP + mass spectrometry, HEK293 cells
LRP5 (endogenous) = biological target: T1, LRP5 (endogenous) (human, UniProt O75197 32-1615)
T1 construct: whole, on cells

[1] = biological target: T2, Lgr4 (endogenous, or expression construct whose tag is not stated) (human, UniProt Q9BXB1 25-951)
T2 construct: whole, on cells; Endogenous protein of HEK293T / LS174T cells in TAP-MS; also called endogenous Lgr4

LRP6 (endogenous) = biological target: T3, LRP6 (endogenous) (human, UniProt O75581 20-1613)
T3 construct: whole, on cells
T3 sequence (O75581 20-1613): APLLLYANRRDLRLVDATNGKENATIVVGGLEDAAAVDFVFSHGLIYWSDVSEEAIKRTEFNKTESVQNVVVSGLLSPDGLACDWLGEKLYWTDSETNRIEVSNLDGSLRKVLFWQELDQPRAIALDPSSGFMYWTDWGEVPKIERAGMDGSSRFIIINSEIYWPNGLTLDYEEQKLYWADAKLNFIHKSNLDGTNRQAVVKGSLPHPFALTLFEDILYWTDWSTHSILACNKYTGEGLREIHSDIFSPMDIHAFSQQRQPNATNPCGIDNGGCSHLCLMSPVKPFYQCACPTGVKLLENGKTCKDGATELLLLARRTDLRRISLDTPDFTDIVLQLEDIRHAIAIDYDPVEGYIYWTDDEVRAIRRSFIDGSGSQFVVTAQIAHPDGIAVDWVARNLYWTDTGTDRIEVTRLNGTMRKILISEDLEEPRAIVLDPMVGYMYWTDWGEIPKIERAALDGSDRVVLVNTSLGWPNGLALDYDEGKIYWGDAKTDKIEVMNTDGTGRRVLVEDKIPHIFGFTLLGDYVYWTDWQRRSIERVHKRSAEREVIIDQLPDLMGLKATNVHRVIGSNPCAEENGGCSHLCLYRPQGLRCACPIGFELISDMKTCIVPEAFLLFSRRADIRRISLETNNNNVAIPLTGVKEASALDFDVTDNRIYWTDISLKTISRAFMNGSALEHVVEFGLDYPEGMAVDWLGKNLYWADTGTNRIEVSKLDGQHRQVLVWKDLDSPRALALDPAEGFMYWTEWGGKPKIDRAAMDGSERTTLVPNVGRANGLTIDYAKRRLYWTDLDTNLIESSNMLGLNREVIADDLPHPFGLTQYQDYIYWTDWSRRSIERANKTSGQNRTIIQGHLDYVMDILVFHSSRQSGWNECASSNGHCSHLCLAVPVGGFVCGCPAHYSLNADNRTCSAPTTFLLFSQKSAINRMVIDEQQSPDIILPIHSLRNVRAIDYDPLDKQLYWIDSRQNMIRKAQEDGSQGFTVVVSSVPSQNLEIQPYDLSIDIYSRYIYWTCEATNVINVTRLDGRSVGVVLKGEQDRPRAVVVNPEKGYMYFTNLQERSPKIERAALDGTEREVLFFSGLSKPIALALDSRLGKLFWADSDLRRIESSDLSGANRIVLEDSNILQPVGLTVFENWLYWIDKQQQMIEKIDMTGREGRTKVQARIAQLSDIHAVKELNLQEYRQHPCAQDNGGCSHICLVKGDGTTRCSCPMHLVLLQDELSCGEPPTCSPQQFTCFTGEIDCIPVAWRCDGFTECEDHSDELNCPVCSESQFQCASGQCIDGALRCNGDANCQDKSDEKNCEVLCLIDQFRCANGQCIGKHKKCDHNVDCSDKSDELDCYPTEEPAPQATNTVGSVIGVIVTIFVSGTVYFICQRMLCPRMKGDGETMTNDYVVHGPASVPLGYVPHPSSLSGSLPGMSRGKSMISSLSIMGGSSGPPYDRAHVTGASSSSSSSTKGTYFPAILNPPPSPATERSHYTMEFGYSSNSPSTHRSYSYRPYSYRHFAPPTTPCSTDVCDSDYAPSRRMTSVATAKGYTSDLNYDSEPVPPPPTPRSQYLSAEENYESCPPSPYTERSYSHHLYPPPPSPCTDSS

T1 sequence (O75197 32-1615): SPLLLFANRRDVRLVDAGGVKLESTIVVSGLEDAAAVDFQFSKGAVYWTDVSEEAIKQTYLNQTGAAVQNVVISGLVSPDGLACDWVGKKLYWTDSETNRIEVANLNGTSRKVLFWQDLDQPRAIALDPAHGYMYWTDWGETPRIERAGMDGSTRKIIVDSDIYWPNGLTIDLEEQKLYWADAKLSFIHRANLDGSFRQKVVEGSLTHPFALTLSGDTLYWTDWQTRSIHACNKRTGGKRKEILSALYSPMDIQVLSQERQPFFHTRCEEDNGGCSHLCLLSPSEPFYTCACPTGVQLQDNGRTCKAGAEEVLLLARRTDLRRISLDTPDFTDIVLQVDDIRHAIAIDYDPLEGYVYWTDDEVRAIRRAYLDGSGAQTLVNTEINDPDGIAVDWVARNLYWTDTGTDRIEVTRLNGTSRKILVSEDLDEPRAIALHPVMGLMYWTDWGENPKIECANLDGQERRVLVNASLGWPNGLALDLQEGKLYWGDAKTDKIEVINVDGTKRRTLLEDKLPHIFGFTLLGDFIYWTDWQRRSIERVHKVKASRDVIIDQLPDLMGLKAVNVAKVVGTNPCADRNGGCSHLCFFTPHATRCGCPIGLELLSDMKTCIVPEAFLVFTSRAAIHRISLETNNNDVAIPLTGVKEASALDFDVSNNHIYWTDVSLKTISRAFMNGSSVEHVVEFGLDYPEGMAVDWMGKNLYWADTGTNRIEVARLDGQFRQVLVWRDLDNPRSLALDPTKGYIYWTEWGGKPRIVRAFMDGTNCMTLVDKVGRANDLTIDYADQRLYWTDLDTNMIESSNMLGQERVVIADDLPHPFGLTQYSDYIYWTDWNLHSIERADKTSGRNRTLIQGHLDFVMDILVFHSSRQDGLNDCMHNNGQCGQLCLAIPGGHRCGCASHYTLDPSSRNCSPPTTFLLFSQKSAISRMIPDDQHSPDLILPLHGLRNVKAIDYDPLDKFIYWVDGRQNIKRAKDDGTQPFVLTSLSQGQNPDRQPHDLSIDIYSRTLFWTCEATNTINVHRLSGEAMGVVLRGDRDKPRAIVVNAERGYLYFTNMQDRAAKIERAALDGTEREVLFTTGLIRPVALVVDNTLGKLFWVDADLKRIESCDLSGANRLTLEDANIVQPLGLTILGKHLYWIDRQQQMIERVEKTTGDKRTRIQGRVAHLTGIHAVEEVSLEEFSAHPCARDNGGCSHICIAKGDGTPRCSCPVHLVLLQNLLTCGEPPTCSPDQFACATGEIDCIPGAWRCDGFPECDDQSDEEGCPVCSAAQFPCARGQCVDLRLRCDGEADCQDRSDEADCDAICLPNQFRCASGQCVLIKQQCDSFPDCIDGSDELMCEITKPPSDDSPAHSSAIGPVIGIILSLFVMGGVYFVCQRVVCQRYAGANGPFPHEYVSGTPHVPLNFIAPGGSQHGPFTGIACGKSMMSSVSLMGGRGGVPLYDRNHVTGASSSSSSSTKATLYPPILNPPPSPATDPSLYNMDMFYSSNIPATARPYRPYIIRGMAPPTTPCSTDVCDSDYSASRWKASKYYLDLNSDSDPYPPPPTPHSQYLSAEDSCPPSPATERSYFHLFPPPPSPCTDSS

Binder | binding result (LRP5 (endogenous)) | binding result [1] | binding result (LRP6 (endogenous))
FBXO31 (other, not shown: small tags and cut ends, TAP-MS bait) MAVCARLCGVGPSRGCRRRQQRRGPAETAAADSEPDTDPEEERIEASAGVGGGLCAGPSPPPPRCSLLELPPELLVEIFASLPGTDLPSLAQVCTKFRRILHTDTIWRRRCREEYGVCENLRKLEITGVSCRDVYAKLLHRYRHILGLWQPDIGPYGGLLNVVVDGLFIIGWMYLPPHDPHVDDPMRFKPLFRIHLMERKAATVECMYGHKGPHHGHIQIVKKDEFSTKCNQTDHHRMSGGRQEEFRTWLREEWGRTLEDIFHEHMQELILMKFIYTSQYDNCLTYRRIYLPPSRPDDLIKPGLFKGTYGSHGLEIVMLSFHGRRARGTKITGDPNIPAGQQTVEIDLRHRIQLPDLENQRNFNELSRIVLEVRERVRQEQQEGGHEAGEGRGRQGPRESQPSPAQPRAEAPSKGPDGTPGEDGGEPGDAVAAAEQPAQCGQGQPFVLPVGVSSRNEDYPRTCRMCFYGTGLIAGHGFTSPERTPGVFILFDEDRFGFVWLELKSFSLYSRVQATFRNADAPSPQAFDEMLKNIQSLTS | no binding | no binding | no binding
USP47 (enzyme, not shown: small tags and cut ends, TAP-MS bait) MVPGEENQLVPKEDVFWRCRQNIFDEMKKKFLQIENAAEEPRVLCIIQDTTNSKTVNERITLNLPASTPVRKLFEDVANKVGYINGTFDLVWGNGINTADMAPLDHTSDKSLLDANFEPGKKNFLHLTDKDGEQPQILLEDSSAGEDSVHDRFIGPLPREGSGGSTSDYVSQSYSYSSILNKSETGYVGLVNQAMTCYLNSLLQTLFMTPEFRNALYKWEFEESEEDPVTSIPYQLQRLFVLLQTSKKRAIETTDVTRSFGWDSSEAWQQHDVQELCRVMFDALEQKWKQTEQADLINELYQGKLKDYVRCLECGYEGWRIDTYLDIPLVIRPYGSSQAFASVEEALHAFIQPEILDGPNQYFCERCKKKCDARKGLRFLHFPYLLTLQLKRFDFDYTTMHRIKLNDRMTFPEELDMSTFIDVEDEKSPQTESCTDSGAENEGSCHSDQMSNDFSNDDGVDEGICLETNSGTEKISKSGLEKNSLIYELFSVMVHSGSAAGGHYYACIKSFSDEQWYSFNDQHVSRITQEDIKKTHGGSSGSRGYYSSAFASSTNAYMLIYRLKDPARNAKFLEVDEYPEHIKNLVQKERELEEQEKRQREIERNTCKIKLFCLHPTKQVMMENKLEVHKDKTLKEAVEMAYKMMDLEEVIPLDCCRLVKYDEFHDYLERSYEGEEDTPMGLLLGGVKSTYMFDLLLETRKPDQVFQSYKPGEVMVKVHVVDLKAESVAAPITVRAYLNQTVTEFKQLISKAIHLPAETMRIVLERCYNDLRLLSVSSKTLKAEGFFRSNKVFVESSETLDYQMAFADSHLWKLLDRHANTIRLFVLLPEQSPVSYSKRTAYQKAGGDSGNVDDDCERVKGPVGSLKSVEAILEESTEKLKSLSLQQQQDGDNGDSSKSTETSDFENIESPLNERDSSASVDNRELEQHIQTSDPENFQSEERSDSDVNNDRSTSSVDSDILSSSHSSDTLCNADNAQIPLANGLDSHSITSSRRTKANEGKKETWDTAEEDSGTDSEYDESGKSRGEMQYMYFKAEPYAADEGSGEGHKWLMVHVDKRITLAAFKQHLEPFVGVLSSHFKVFRVYASNQEFESVRLNETLSSFSDDNKITIRLGRALKKGEYRVKVYQLLVNEQEPCKFLLDAVFAKGMTVRQSKEELIPQLREQCGLELSIDRFRLRKKTWKNPGTVFLDYHIYEEDINISSNWEVFLEVLDGVEKMKSMSQLAVLSRRWKPSEMKLDPFQEVVLESSSVDELREKLSEISGIPLDDIEFAKGRGTFPCDISVLDIHQDLDWNPKVSTLNVWPLYICDDGAVIFYRDKTEELMELTDEQRNELMKKESSRLQKTGHRVTYSPRKEKALKIYLDGAPNKDLTQD | no binding |  | no binding
PER2 (other, not shown: small tags and cut ends, TAP-MS bait) MNGYAEFPPSPSNPTKEPVEPQPSQVPLQEDVDMSSGSSGHETNENCSTGRDSQGSDCDDSGKELGMLVEPPDARQSPDTFSLMMAKSEHNPSTSGCSSDQSSKVDTHKELIKTLKELKVHLPADKKAKGKASTLATLKYALRSVKQVKANEEYYQLLMSSEGHPCGADVPSYTVEEMESVTSEHIVKNADMFAVAVSLVSGKILYISDQVASIFHCKRDAFSDAKFVEFLAPHDVGVFHSFTSPYKLPLWSMCSGADSFTQECMEEKSFFCRVSVRKSHENEIRYHPFRMTPYLVKVRDQQGAESQLCCLLLAERVHSGYEAPRIPPEKRIFTTTHTPNCLFQDVDERAVPLLGYLPQDLIETPVLVQLHPSDRPLMLAIHKKILQSGGQPFDYSPIRFRARNGEYITLDTSWSSFINPWSRKISFIIGRHKVRVGPLNEDVFAAHPCTEEKALHPSIQELTEQIHRLLLQPVPHSGSSGYGSLGSNGSHEHLMSQTSSSDSNGHEDSRRRRAEICKNGNKTKNRSHYSHESGEQKKKSVTEMQTNPPAEKKAVPAMEKDSLGVSFPEELACKNQPTCSYQQISCLDSVIRYLESCNEAATLKRKCEFPANVPALRSSDKRKATVSPGPHAGEAEPPSRVNSRTGVGTHLTSLALPGKAESVASLTSQCSYSSTIVHVGDKKPQPELEMVEDAASGPESLDCLAGPALACGLSQEKEPFKKLGLTKEVLAAHTQKEEQSFLQKFKEIRKLSIFQSHCHYYLQERSKGQPSERTAPGLRNTSGIDSPWKKTGKNRKLKSKRVKPRDSSESTGSGGPVSARPPLVGLNATAWSPSDTSQSSCPAVPFPAPVPAAYSLPVFPAPGTVAAPPAPPHASFTVPAVPVDLQHQFAVQPPPFPAPLAPVMAFMLPSYSFPSGTPNLPQAFFPSQPQFPSHPTLTSEMASASQPEFPSRTSIPRQPCACPATRATPPSAMGRASPPLFQSRSSSPLQLNLLQLEEAPEGGTGAMGTTGATETAAVGADCKPGTSRDQQPKAPLTRDEPSDTQNSDALSTSSGLLNLLLNEDLCSASGSAASESLGSGSLGCDASPSGAGSSDTSHTSKYFGSIDSSENNHKAKMNTGMEESEHFIKCVLQDPIWLLMADADSSVMMTYQLPSRNLEAVLKEDREKLKLLQKLQPRFTESQKQELREVHQWMQTGGLPAAIDVAECVYCENKEKGNICIPYEEDIPSLGLSEVSDTKEDENGSPLNHRIEEQT | no binding |  | no binding
FBXO3 (other, not shown: small tags and cut ends, TAP-MS bait) MAAMETETAPLTLESLPTDPLLLILSFLDYRDLINCCYVSRRLSQLSSHDPLWRRHCKKYWLISEEEKTQKNQCWKSLFIDTYSDVGRYIDHYAAIKKAWDDLKKYLEPRCPRMVLSLKEGAREEDLDAVEAQIGCKLPDDYRCSYRIHNGQKLVVPGLLGSMALSNHYRSEDLLDVDTAAGGFQQRQGLKYCLPLTFCIHTGLSQYIAVEAAEGRNKNEVFYQCPDQMARNPAAIDMFIIGATFTDWFTSYVKNVVSGGFPIIRDQIFRYVHDPECVATTGDITVSVSTSFLPELSSVHPPHYFFTYRIRIEMSKDALPEKACQLDSRYWRITNAKGDVEEVQGPGVVGEFPIISPGRVYEYTSCTTFSTTSGYMEGYYTFHFLYFKDKIFNVAIPRFHMACPTFRVSIARLEMGPDEYEEMEEEEEEEEEEDEDDDSADMDESDEDDEEERRRRVFDVPIRRRRCSRLF | no binding | no binding | no binding
FBXO18 (other, not shown: small tags and cut ends, TAP-MS bait) MRRFKRKHLTAIDCQHLARSHLAVTQPFGQRWTNRDPNHGLYPKPRTKRGSRGQGSQRCIPEFFLAGKQPCTNDMAKSNSVGQDSCQDSEGDMIFPAESSCALPQEGSAGPGSPGSAPPSRKRSWSSEEESNQATGTSRWDGVSKKAPRHHLSVPCTRPREARQEAEDSTSRLSAESGETDQDAGDVGPDPIPDSYYGLLGTLPCQEALSHICSLPSEVLRHVFAFLPVEDLYWNLSLVCHLWREIISDPLFIPWKKLYHRYLMNEEQAVSKVDGILSNCGIEKESDLCVLNLIRYTATTKCSPSVDPERVLWSLRDHPLLPEAEACVRQHLPDLYAAAGGVNIWALVAAVVLLSSSVNDIQRLLFCLRRPSSTVTMPDVTETLYCIAVLLYAMREKGINISNRIHYNIFYCLYLQENSCTQATKVKEEPSVWPGKKTIQLTHEQQLILNHKMEPLQVVKIMAFAGTGKTSTLVKYAEKWSQSRFLYVTFNKSIAKQAERVFPSNVICKTFHSMAYGHIGRKYQSKKKLNLFKLTPFMVNSVLAEGKGGFIRAKLVCKTLENFFASADEELTIDHVPIWCKNSQGQRVMVEQSEKLNGVLEASRLWDNMRKLGECTEEAHQMTHDGYLKLWQLSKPSLASFDAIFVDEAQDCTPAIMNIVLSQPCGKIFVGDPHQQIYTFRGAVNALFTVPHTHVFYLTQSFRFGVEIAYVGATILDVCKRVRKKTLVGGNHQSGIRGDAKGQVALLSRTNANVFDEAVRVTEGEFPSRIHLIGGIKSFGLDRIIDIWILLQPEEERRKQNLVIKDKFIRRWVHKEGFSGFKRYVTAAEDKELEAKIAVVEKYNIRIPELVQRIEKCHIEDLDFAEYILGTVHKAKGLEFDTVHVLDDFVKVPCARHNLPQLPHFRVESFSEDEWNLLYVAVTRAKKRLIMTKSLENILTLAGEYFLQAELTSNVLKTGVVRCCVGQCNNAIPVDTVLTMKKLPITYSNRKENKGGYLCHSCAEQRIGPLAFLTASPEQVRAMERTVENIVLPRHEALLFLVF | no binding |  | no binding
RNF43 (other, not shown: small tags and cut ends, TAP-MS bait) GFGRTGLVLAAAVESERSAEQKAIIRVIPLKMDPTGKLNLTLEGVFAGVAEITPAEGKLMQSHPLYLCNASDDDNLEPGFISIVKLESPRRAPRPCLSLASKARMAGERGASAVLFDITEDRAAAEQLQQPLGLTWPVVLIWGNDAEKLMEFVYKNQKAHVRIELKEPPAWPDYDVWILMTVVGTIFVIILASVLRIRCRPRHSRPDPLQQRTAWAISQLATRRYQASCRQARGEWPDSGSSCSSAPVCAICLEEFSEGQELRVISCLHEFHRNCVDPWLHQHRTCPLCMFNITEGDSFSQSLGPSRSYQEPGRRLHLIRQHPGHAHYHLPAAYLLGPSRSAVARPPRPGPFLPSQEPGMGPRHHRFPRAAHPRAPGEQQRLAGAQHPYAQGWGLSHLQSTSQHPAACPVPLRRARPPDSSGSGESYCTERSGYLADGPASDSSSGPCHGSSSDSVVNCTDISLQGVHGSSSTFCSSLSSDFDPLVYCSPKGDPQRVDMQPSVTSRPRSLDSVVPTGETQVSSHVHYHRHRHHHYKKRFQWHGRKPGPETGVPQSRPPIPRTQPQPEPPSPDQQVTRSNSAAPSGRLSNPQCPRALPEPAPGPVDASSICPSTSSLFNLQKSSLSARHPQRKRRGGPSEPTPGSRPQDATVHPACQIFPHYTPSVAYPWSPEAHPLICGPPGLDKRLLPETPGPCYSNSQPVWLCLTPRQPLEPHPPGEGPSEWSSDTAEGRPCPYPHCQVLSAQPGSEEELEELCEQAV | no binding |  | 
